What was measured:
[1] = tested on: MD-2 tyrosine phosphorylation; test: LPS-induced MD-2 tyrosine phosphorylation in HEK293 cells (immunoprecipitation, anti-phosphotyrosine immunoblot); type: cell-based, human; settings: pretreatment 1-2 h before LPS; HEK293 cells overexpressing TLR4 and MD-2
Protocol: 24 h later cells were left untreated (lanes 1 and 2) or stimulated with LPS (lanes 3-7). Flag-tagged proteins were immunoprecipitated with an anti-Flag Ab in cell lysates and analyzed by SDS-PAGE and immunoblotted with an anti-phosphotyrosine Ab (top panel), or an anti-Flag Ab (middle and lower panels). (B) HEK293 cells were transiently transfected with Flag-TLR4 and Flag-MD-2 (lanes 1-5). 24 hrs later, cells were pretreated for 2 hrs with herbimycin A at 0.5 μg/ml (lane 3) or 2.5 μg/ml (lane 4), or for 1 hr with 2 μM cytochalasin D (lane 5) prior to stimulation with LPS for 5 mins.
(A) HEK293 cells were transiently transfected with TLR4 and Myc-MD-2 (lanes 1-6). […] Myc-tagged proteins were immunoprecipitated with an anti-Myc Ab in cell lysates, and analyzed by SDS-PAGE and immunoblotted with an anti-phosphotyrosine Ab (top panel), or an anti-Myc Ab (lower panel). […] Cells were left untreated or stimulated with LPS for 6 hours and luciferase activity measured in cell lysates and expressed as fold induction relative to untreated cells.
Tyrosine phosphorylation of numerous proteins is induced upon stimulation with LPS and indeed the LPS receptor, TLR4, is itself tyrosine phosphorylated. […] Proteins were immunoprecipitated from cell extracts with an anti-Flag Ab and analyzed by immunoblotting with an Ab that detects proteins phosphorylated on phosphotyrosine residues. […]

TLR4 = target: T1, TLR4 (Homo sapiens, UniProt O00206); test: NF-κB luciferase reporter in HEK293 cells expressing TLR4, LPS stimulation; type: cell-based; settings: for Ability to activate NF-κB upon LPS stimulation compared to wild-type MD-2: construct transfected into HEK293 TLR4/NF-κB reporter cells, LPS 6 h; for Decrease in NF-κB activity upon LPS stimulation: versus wild-type MD-2
T1 construct: expressed in transfected cells; host or cells: HEK293
T1 sequence (O00206 24-839): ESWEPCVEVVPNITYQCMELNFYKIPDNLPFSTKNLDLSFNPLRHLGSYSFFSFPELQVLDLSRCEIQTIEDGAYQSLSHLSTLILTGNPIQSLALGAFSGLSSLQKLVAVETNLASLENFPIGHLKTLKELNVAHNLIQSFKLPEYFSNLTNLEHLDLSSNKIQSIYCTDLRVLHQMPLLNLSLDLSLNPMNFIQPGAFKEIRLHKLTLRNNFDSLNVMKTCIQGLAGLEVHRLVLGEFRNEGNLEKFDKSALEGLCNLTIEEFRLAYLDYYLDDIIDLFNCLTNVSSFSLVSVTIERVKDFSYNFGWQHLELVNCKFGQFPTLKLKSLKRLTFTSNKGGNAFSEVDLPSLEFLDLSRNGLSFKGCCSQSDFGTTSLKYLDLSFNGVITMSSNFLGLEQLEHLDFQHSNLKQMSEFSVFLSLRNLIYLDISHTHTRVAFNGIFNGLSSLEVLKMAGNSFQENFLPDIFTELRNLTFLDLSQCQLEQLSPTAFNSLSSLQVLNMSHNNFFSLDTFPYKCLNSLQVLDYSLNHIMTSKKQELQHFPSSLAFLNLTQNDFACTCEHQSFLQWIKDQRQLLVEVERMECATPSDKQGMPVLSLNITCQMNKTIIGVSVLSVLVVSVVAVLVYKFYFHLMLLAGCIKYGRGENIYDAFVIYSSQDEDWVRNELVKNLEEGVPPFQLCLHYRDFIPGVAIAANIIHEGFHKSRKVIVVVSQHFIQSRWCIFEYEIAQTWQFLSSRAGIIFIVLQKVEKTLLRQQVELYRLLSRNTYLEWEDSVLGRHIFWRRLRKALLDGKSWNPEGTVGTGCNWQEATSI
Protocol: (A) HEK-293 cells stably transfected with TLR4 and a NF-κB reporter gene were treated with supernatants containing either MD-2 or MD-2s as described in the examples herein. Cells were left untreated or stimulated with LPS for 24 h. Mean relative stimulation of luciferase activity±S.D. for a representative experiment, each performed in triplicate, is shown. (B) HEK-293 cells stably transfected with TLR4 and a NF-κB reporter gene were transiently transfected with plasmids encoding for either MD-2, MD-2s or CD14 as shown. 24 h later, cells were left untreated or stimulated with LPS (250 ng/ml) for 6 h. Mean relative stimulation of luciferase activity±SD for a representative experiment, each performed in triplicate, is shown. (C) and (D) Supernatants were also collected and measured for IL-8 secretion.
(A) HEK293 cells were transiently transfected with plasmids encoding TLR4 and a NF-κB reporter gene in combination with MD-2 and MD-2s as indicated. 24 h later, cells were left untreated or incubated with LPS (250 ng/ml) for 5 h. Mean relative stimulation of luciferase activity±S.D. for a representative experiment from three separate experiments, each performed in triplicate, is shown. (B) HEK-293 cells stably transfected with TLR4 and a NF-κB reporter gene were treated with supernatants containing either MD-2 and MD-2s as depicted and left untreated or incubated with LPS for 24 h. Mean relative stimulation of luciferase activity±S.D. for a representative experiment from three separate experiments, each performed in triplicate, is shown.
HEK293 cells were transiently transfected with the expression vectors noted in combination with constructs encoding the NF-κB- and IL-8-luciferase reporter gene, and either the β-galactosidase gene or the phRL-TK report gene to normalize for transfection efficiency. In all cases, total DNA concentration was kept constant by supplementation with empty vector control. Following overnight incubation, cells were stimulated for 6 hours with 50 ng/ml LPS and then lysed, and luciferase activity was measured as described previously (Ohta et al. (2004) BIOCHEM BIOPHYS RES COMMUN 323, 1103-1108). Data are shown as mean±SD of three or more independent experiments and are reported as a percentage of LPS-stimulated NF-κB and IL-8 promoter activity, or relative luciferase activity.
The requirement for MD-2s in LPS mediated NF-κB activation was assessed. It has been shown that the soluble form of wild-type MD-2 confers LPS responsiveness to cells expressing TLR4; therefore, it was investigated if soluble MD-2s was also bioactive. Culture supernatants were obtained from HEK293 cells transiently expressing control vector, MD-2, or MD-2s, and incubated with HEK293 cells stably transfected with TLR4 and an NF-κB-dependent luciferase reporter gene.
MD-2s was tested to see if it needed to be transiently expressed in TLR4 reporter cells in order to mediate NF-κB activation following LPS stimulation. HEK293 cells stably transfected with TLR4 and an NF-κB-dependent luciferase reporter gene were transiently transfected with plasmids encoding CD14 in combination with either MD-2 or MD-2s, and subsequently treated with LPS.
HEK293 cells were transiently transfected with plasmids encoding CD14, TLR4, and wild-type MD-2 in conjunction with a plasmid encoding the NF-κB-dependent luciferase reporter gene in the presence or absence of a plasmid encoding MD-2s. […] Furthermore, we assessed the inhibitory role of soluble MD-2s following LPS stimulation. HEK293 cells stably transfected with TLR4 and an NF-κB-dependent luciferase reporter gene were incubated with supernatants obtained from HEK293 cells transiently expressing a constant amount of MD-2 with increasing concentrations of MD-2s.

| Molecule | Effect on LPS-induced MD-2 tyrosine phosphorylation [1] | Ability to activate NF-κB upon LPS stimulation compared to wild-type MD-2 (TLR4) | Decrease in NF-κB activity upon LPS stimulation (TLR4) |
| --- | --- | --- | --- |
| C=C1[C@@H](C)[C@H]2[C@H](Cc3ccccc3)NC(=O)[C@]23[C@H](OC(C)=O)/C=C/[C@@](C)(O)C(=O)[C@@H](C)C/C=C/[C@H]3[C@@H]1O [cytochalasin D] | significantly inhibited |  |  |
| CO[C@H]1[C@@H](OC)C[C@H](C)[C@@H](OC)C2=CC(=O)C=C(NC(=O)/C(C)=C/C=C\[C@H](OC)[C@@H](OC(N)=O)/C(C)=C/[C@@H]1C)C2=O [herbimycin A] | significantly inhibited |  |  |
| MD-2-Y22F: human MD-2 with tyrosine 22 mutated to phenylalanine (protein, Tyrosine to phenylalanine mutation at position 22 of human MD-2, human MD-2 with tyrosine 22 mutated to phenylalanine) MLPFLFFSTLFSSIFTEAQKQFWVCNSSDASISYTYCDKMQYPISINVNPCIELKRSKGLLHIFYIPRRDLKQLYFNLYITVNTMNLPKRKEVICRGSDDDYSFCRALKGETVNTTISFSFKGIKFSKGKYKCVVEAISGSPEEMLFCLEFVILHQPNSN |  | significantly less potent | 50% |
| MD-2-Y131F: human MD-2 with tyrosine 131 mutated to phenylalanine (protein, Tyrosine to phenylalanine mutation at position 131 of human MD-2, human MD-2 with tyrosine 131 mutated to phenylalanine) MLPFLFFSTLFSSIFTEAQKQYWVCNSSDASISYTYCDKMQYPISINVNPCIELKRSKGLLHIFYIPRRDLKQLYFNLYITVNTMNLPKRKEVICRGSDDDYSFCRALKGETVNTTISFSFKGIKFSKGKFKCVVEAISGSPEEMLFCLEFVILHQPNSN |  | significantly less potent | 50% |
| MD-2-Y22FY131F: human MD-2 double mutant, tyrosines 22 and 131 mutated to phenylalanine (protein, Tyrosine to phenylalanine mutation at position 22 and 131 of human MD-2, human MD-2 double mutant, tyrosines 22 and 131 mutated to phenylalanine) MLPFLFFSTLFSSIFTEAQKQFWVCNSSDASISYTYCDKMQYPISINVNPCIELKRSKGLLHIFYIPRRDLKQLYFNLYITVNTMNLPKRKEVICRGSDDDYSFCRALKGETVNTTISFSFKGIKFSKGKFKCVVEAISGSPEEMLFCLEFVILHQPNSN |  | do not activate NF-κB as strongly as wild-type MD-2 |  |

Source: patent US9512196B2, “Short-form human MD-2 as a negative regulator of toll-like receptor 4 signaling” (Cedars-Sinai Medical Center, priority 2008, dated 2016)
